Measurements: patent US20260217814 (published 2026)

Tests used:
cynomolgus IL-17A = target: T1, cynomolgus IL-17A (cynomolgus); assay: SPR
T1 chain: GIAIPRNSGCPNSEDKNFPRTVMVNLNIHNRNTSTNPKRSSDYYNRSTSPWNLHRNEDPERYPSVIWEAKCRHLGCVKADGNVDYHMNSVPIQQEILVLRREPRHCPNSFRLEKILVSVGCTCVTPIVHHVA

IL-17D = target: T2, IL-17D (human); assay: competition
T2 chain: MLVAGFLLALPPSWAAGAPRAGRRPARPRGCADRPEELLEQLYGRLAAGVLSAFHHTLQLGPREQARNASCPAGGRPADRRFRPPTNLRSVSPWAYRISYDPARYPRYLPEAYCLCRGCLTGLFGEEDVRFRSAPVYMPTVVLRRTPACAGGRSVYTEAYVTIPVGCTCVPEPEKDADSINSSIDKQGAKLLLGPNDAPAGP

IL-17B = target: T3, IL-17B (human); assay: competition ELISA
T3 chain: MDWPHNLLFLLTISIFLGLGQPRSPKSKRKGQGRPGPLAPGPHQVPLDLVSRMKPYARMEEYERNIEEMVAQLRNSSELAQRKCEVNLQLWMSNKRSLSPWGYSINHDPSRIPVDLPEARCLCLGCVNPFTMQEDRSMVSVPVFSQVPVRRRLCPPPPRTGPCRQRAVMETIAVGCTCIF

IL-17F = target: T4, IL-17F (human); assay: competition ELISA
T4 chain: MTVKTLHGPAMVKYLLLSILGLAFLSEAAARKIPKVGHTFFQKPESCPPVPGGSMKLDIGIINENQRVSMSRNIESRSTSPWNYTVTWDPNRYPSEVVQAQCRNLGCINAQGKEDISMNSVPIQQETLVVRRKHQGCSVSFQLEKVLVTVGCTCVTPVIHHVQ

human IL-17A [1] = target: T5, human IL-17A (human); assay: SPR, direct setup
T5 chain: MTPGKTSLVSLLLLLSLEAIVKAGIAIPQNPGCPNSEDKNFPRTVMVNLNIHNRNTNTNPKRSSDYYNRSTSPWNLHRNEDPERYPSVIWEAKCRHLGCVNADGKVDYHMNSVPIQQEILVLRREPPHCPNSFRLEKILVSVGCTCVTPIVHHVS

IL-17C = target: T6, IL-17C (human); assay: competition ELISA
T6 chain: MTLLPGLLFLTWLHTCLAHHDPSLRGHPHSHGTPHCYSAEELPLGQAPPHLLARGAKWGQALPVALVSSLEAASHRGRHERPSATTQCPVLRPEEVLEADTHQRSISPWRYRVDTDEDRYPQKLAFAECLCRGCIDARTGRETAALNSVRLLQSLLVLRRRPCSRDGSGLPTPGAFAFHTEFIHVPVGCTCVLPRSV

IL-17E = target: T7, IL-17E (human); assay: competition ELISA
T7 chain: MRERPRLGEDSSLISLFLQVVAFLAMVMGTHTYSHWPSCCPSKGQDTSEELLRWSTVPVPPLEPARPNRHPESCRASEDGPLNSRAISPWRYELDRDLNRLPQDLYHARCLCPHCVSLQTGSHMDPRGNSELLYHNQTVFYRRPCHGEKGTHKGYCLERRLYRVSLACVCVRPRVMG

human serum albumin [2] = target: T8, human serum albumin (human, UniProt P02768); assay: SPR, pH 5.5
human serum albumin [3] = target: T8, human serum albumin; assay: SPR, pH 7.4
human IL-17A [4] = target: T5, human IL-17A; assay: SPR

B1: A1 (27-07-G02-sc01) (antibody)
chain: DIQMTQSPSSLSASVGDRVTITCQASQTINYWLAWYQQKPGKAPKLLIYRASTLASGVPSRFSGSGSGTDFTLTISSLQPEDFATYYCQNYYYSTSRSYGFGGGTKLTVLGGGGGSGGGGSGGGGSGGGGSEVQLVESGGGLVQPGGSLRLSCAASGFSFSSDYWMCWVRQAPGKGLEWIGCIYAGDVDDTDYASWARGRFTISRDNSKNTVYLQMNSLRAEDTAVYYCARVDGFDITYFDLWGQGTLVTVSS
- Kd (cynomolgus IL-17A): 0.9 nM
- binding result (IL-17D): no binding
- binding result (IL-17B): no binding
- binding result (IL-17F): no binding
- Kd (human IL-17A [1]): 0.14 nM
- binding result (IL-17C): no binding
- binding result (IL-17E): no binding

B2: A3 HSA arm (antibody)
chain 1: EVQLVESGGGLVQPGGSLRLSCAASGFSLSSNAMGWVRQAPGKGLEYIGIISVGGFTYYASWAKGRFTISRDNSKNTVYLQMNSLRAEDTATYFCARDRHGGDSSGAFYLWGQGTLVTVSSASTKGPSVFPLAPSSKSTSGGTAALGCLVKDYFPEPVTVSWNSGALTSGVHTFPAVLQSSGLYSLSSVVTVPSSSLGTQTYICNVNHKPSNTKVDKKVEPKSCGGGGSGGGGSDIQMTQSPSSLSASVGDRVTITCQASQTINYWLAWYQQKPGKAPKLLIYRASTLASGVPSRFSGSGSGTDFTLTISSLQPEDFATYYCQNYYYSTSRSYGFGGGTKLTVLGGGGGSGGGGSGGGGSGGGGSEVQLVESGGGLVQPGGSLRLSCAASGFSFSSDYWMCWVRQAPGKGLEWIGCIYAGDVDDTDYASWARGRFTISRDNSKNTVYLQMNSLRAEDTAVYYCARVDGFDITYFDLWGQGTLVTVSS
chain 2: DIQMTQSPSSLSASVGDRVTITCQSSESVYSNNQLSWYQQKPGQPPKLLIYDASDLASGVPSRFSGSGSGTDFTLTISSLQPEDFATYYCAGGFSSSSDTAFGGGTKLTVLGRTRTVAAPSVFIFPPSDEQLKSGTASVVCLLNNFYPREAKVQWKVDNALQSGNSQESVTEQDSKDSTYSLSSTLTLSKADYEKHKVYACEVTHQGLSSPVTKSFNRGECGGGGSGGGGSDIQMTQSPSSLSASVGDRVTINCQASESISSWLAWYQQKPGKRPKLLIYKASTLASGVPSRFSGSGSGTDYTLTISSLQPEDFATYYCQGYYLDSSVDDNVFGGGTKLTVLGGGGGSGGGGSGGGGSGGGGSEVQLVESGGGLVQPGGSLRLSCAASGIDFSTYGISWVRQAPGKGLEWIAYIYPDYGITDYASWVNGRFTISLDNAQNTVYLQMNSLRAEDTAVYYCARSGSYYSRGWGAHYFNLWGQGTLVTVSS
- Kd (human serum albumin [2]): 0.947 nM
- Kd (human serum albumin [3]): 1.37 nM

B3: A4 IL-17A arm (antibody)
chain 1: EVQLVESGGGLVQPGGSLRLSCAASGFSFSSDYWMCWVRQAPGKGLEWIGCIYAGDVDDTDYASWARGRFTISRDNSKNTVYLQMNSLRAEDTAVYYCARVDGFDITYFDLWGQGTLVTVSSASTKGPSVFPLAPSSKSTSGGTAALGCLVKDYFPEPVTVSWNSGALTSGVHTFPAVLQSSGLYSLSSVVTVPSSSLGTQTYICNVNHKPSNTKVDKKVEPKSCGGGGSGGGGSDIQMTQSPSSLSASVGDRVTITCQSSESVYSNNQLSWYQQKPGQPPKLLIYDASDLASGVPSRFSGSGSGTDFTLTISSLQPEDFATYYCAGGFSSSSDTAFGGGTKLTVLGGGGGSGGGGSGGGGSGGGGSEVQLVESGGGLVQPGGSLRLSCAASGFSLSSNAMGWVRQAPGKGLEYIGIISVGGFTYYASWAKGRFTISRDNSKNTVYLQMNSLRAEDTATYFCARDRHGGDSSGAFYLWGQGTLVTVSS
chain 2: DIQMTQSPSSLSASVGDRVTITCQASQTINYWLAWYQQKPGKAPKLLIYRASTLASGVPSRFSGSGSGTDFTLTISSLQPEDFATYYCQNYYYSTSRSYGFGGGTKLTVLGRTRTVAAPSVFIFPPSDEQLKSGTASVVCLLNNFYPREAKVQWKVDNALQSGNSQESVTEQDSKDSTYSLSSTLTLSKADYEKHKVYACEVTHQGLSSPVTKSFNRGECGGGGSGGGGSDIQMTQSPSSLSASVGDRVTINCQASESISSWLAWYQQKPGKRPKLLIYKASTLASGVPSRFSGSGSGTDYTLTISSLQPEDFATYYCQGYYLDSSVDDNVFGGGTKLTVLGGGGGSGGGGSGGGGSGGGGSEVQLVESGGGLVQPGGSLRLSCAASGIDFSTYGISWVRQAPGKGLEWIAYIYPDYGITDYASWVNGRFTISLDNAQNTVYLQMNSLRAEDTAVYYCARSGSYYSRGWGAHYFNLWGQGTLVTVSS
- Kd (human IL-17A [4]): 0.337 nM

B4: A3 IL-17A arm (antibody)
chain 1: EVQLVESGGGLVQPGGSLRLSCAASGFSLSSNAMGWVRQAPGKGLEYIGIISVGGFTYYASWAKGRFTISRDNSKNTVYLQMNSLRAEDTATYFCARDRHGGDSSGAFYLWGQGTLVTVSSASTKGPSVFPLAPSSKSTSGGTAALGCLVKDYFPEPVTVSWNSGALTSGVHTFPAVLQSSGLYSLSSVVTVPSSSLGTQTYICNVNHKPSNTKVDKKVEPKSCGGGGSGGGGSDIQMTQSPSSLSASVGDRVTITCQASQTINYWLAWYQQKPGKAPKLLIYRASTLASGVPSRFSGSGSGTDFTLTISSLQPEDFATYYCQNYYYSTSRSYGFGGGTKLTVLGGGGGSGGGGSGGGGSGGGGSEVQLVESGGGLVQPGGSLRLSCAASGFSFSSDYWMCWVRQAPGKGLEWIGCIYAGDVDDTDYASWARGRFTISRDNSKNTVYLQMNSLRAEDTAVYYCARVDGFDITYFDLWGQGTLVTVSS
chain 2: DIQMTQSPSSLSASVGDRVTITCQSSESVYSNNQLSWYQQKPGQPPKLLIYDASDLASGVPSRFSGSGSGTDFTLTISSLQPEDFATYYCAGGFSSSSDTAFGGGTKLTVLGRTRTVAAPSVFIFPPSDEQLKSGTASVVCLLNNFYPREAKVQWKVDNALQSGNSQESVTEQDSKDSTYSLSSTLTLSKADYEKHKVYACEVTHQGLSSPVTKSFNRGECGGGGSGGGGSDIQMTQSPSSLSASVGDRVTINCQASESISSWLAWYQQKPGKRPKLLIYKASTLASGVPSRFSGSGSGTDYTLTISSLQPEDFATYYCQGYYLDSSVDDNVFGGGTKLTVLGGGGGSGGGGSGGGGSGGGGSEVQLVESGGGLVQPGGSLRLSCAASGIDFSTYGISWVRQAPGKGLEWIAYIYPDYGITDYASWVNGRFTISLDNAQNTVYLQMNSLRAEDTAVYYCARSGSYYSRGWGAHYFNLWGQGTLVTVSS
- Kd (human IL-17A [4]): 1.53 nM

B5: A4 HSA arm (antibody)
chain 1: EVQLVESGGGLVQPGGSLRLSCAASGFSFSSDYWMCWVRQAPGKGLEWIGCIYAGDVDDTDYASWARGRFTISRDNSKNTVYLQMNSLRAEDTAVYYCARVDGFDITYFDLWGQGTLVTVSSASTKGPSVFPLAPSSKSTSGGTAALGCLVKDYFPEPVTVSWNSGALTSGVHTFPAVLQSSGLYSLSSVVTVPSSSLGTQTYICNVNHKPSNTKVDKKVEPKSCGGGGSGGGGSDIQMTQSPSSLSASVGDRVTITCQSSESVYSNNQLSWYQQKPGQPPKLLIYDASDLASGVPSRFSGSGSGTDFTLTISSLQPEDFATYYCAGGFSSSSDTAFGGGTKLTVLGGGGGSGGGGSGGGGSGGGGSEVQLVESGGGLVQPGGSLRLSCAASGFSLSSNAMGWVRQAPGKGLEYIGIISVGGFTYYASWAKGRFTISRDNSKNTVYLQMNSLRAEDTATYFCARDRHGGDSSGAFYLWGQGTLVTVSS
chain 2: DIQMTQSPSSLSASVGDRVTITCQASQTINYWLAWYQQKPGKAPKLLIYRASTLASGVPSRFSGSGSGTDFTLTISSLQPEDFATYYCQNYYYSTSRSYGFGGGTKLTVLGRTRTVAAPSVFIFPPSDEQLKSGTASVVCLLNNFYPREAKVQWKVDNALQSGNSQESVTEQDSKDSTYSLSSTLTLSKADYEKHKVYACEVTHQGLSSPVTKSFNRGECGGGGSGGGGSDIQMTQSPSSLSASVGDRVTINCQASESISSWLAWYQQKPGKRPKLLIYKASTLASGVPSRFSGSGSGTDYTLTISSLQPEDFATYYCQGYYLDSSVDDNVFGGGTKLTVLGGGGGSGGGGSGGGGSGGGGSEVQLVESGGGLVQPGGSLRLSCAASGIDFSTYGISWVRQAPGKGLEWIAYIYPDYGITDYASWVNGRFTISLDNAQNTVYLQMNSLRAEDTAVYYCARSGSYYSRGWGAHYFNLWGQGTLVTVSS
- Kd (human serum albumin [2]): 1.67 nM
- Kd (human serum albumin [3]): 4.79 nM
